Where two headings read alike, the source gives them in different places. Square brackets hold non-standard residues; d marks the D form.
Legend:
[1] = target: T1, mouse melanocortin-5 receptor (mouse, UniProt P41149 1-325); test: cell-based or functional assay
[2] = target: T2, mouse melanocortin-1 receptor (mouse, UniProt Q01727 1-315); test: cell-based or functional assay
[3] = target: T1, mouse melanocortin-5 receptor; test: cell-based or functional assay; remark: listed apart in the source
[4] = target: T3, mouse melanocortin-3 receptor (mouse, UniProt P33033 1-323); test: cell-based or functional assay
[5] = target: T2, mouse melanocortin-1 receptor; test: cell-based or functional assay; remark: listed apart in the source
[6] = target: T4, mouse melanocortin-4 receptor (mouse, UniProt P56450 1-332); test: cell-based or functional assay
[7] = target: T3, mouse melanocortin-3 receptor; test: cell-based or functional assay; remark: listed apart in the source
[8] = target: T5, human melanocortin-4 receptor (human, UniProt P32245 1-332); test: displacement of 125I-AGRP, HEK293 cells expressing hMC4R
T5 construct: whole, on cells; in the thallium flux assay co-expressed with Kir7.1 (M125R); also called hMC4R; wildtype hMC4R
Description: (§1) Competitive binding affinity experiments were performed on HEK-293 cells stably expressing the wildtype hMC4R. […] The assay media was carefully aspirated and cells were washed once with assay buffer. Cell were lysed with 500 μL 0.1 M NaOH and 500 μL 1% Triton X-100 for a minimum of 10 min. […] All experiments were performed with duplicate data points and in at least two independent experimental replicates. […] Concentration-response curves and IC₅₀ values were generated and analyzed by the PRISM program (version 4.0. GraphPad Inc.) by a nonlinear regression method. The standard error of the mean (SEM) was derived from the IC₅₀ values from at least two independent experimental replicates.

[9] = target: T5, human melanocortin-4 receptor; test: cell-based or functional assay
[10] = target: T4, mouse melanocortin-4 receptor; test: cell-based or functional assay; remark: listed apart in the source
[11] = target: T4, mouse melanocortin-4 receptor; test: cell-based or functional assay; remark: listed apart in the source
[12] = target: T3, mouse melanocortin-3 receptor; test: cell-based or functional assay; remark: listed apart in the source
[13] = target: T1, mouse melanocortin-5 receptor; test: cell-based or functional assay; remark: listed apart in the source
[14] = target: T2, mouse melanocortin-1 receptor; test: cell-based or functional assay; remark: listed apart in the source
[15] = target: T5, human melanocortin-4 receptor; test: displacement of 125I-NDP-MSH, HEK293 cells expressing hMC4R
Description: as §1

T3 sequence (P33033 whole entry): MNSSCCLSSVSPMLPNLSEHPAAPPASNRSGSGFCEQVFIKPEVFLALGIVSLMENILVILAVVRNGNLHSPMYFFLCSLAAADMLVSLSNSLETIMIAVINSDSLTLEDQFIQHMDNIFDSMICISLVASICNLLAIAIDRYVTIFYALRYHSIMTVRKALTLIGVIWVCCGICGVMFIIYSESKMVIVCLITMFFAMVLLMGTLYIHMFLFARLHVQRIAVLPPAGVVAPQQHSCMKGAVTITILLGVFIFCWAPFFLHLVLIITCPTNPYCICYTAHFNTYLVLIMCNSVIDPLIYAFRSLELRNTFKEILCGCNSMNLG
T2 sequence (Q01727 whole entry): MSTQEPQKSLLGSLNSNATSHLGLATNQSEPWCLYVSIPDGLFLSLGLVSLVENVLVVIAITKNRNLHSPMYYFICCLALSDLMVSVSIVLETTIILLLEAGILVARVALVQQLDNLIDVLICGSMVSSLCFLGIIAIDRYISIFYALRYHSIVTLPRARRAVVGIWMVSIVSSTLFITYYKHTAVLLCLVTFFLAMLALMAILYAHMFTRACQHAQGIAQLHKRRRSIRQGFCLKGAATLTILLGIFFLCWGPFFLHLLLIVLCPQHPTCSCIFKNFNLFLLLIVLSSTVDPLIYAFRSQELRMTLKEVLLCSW
T4 sequence (P56450 whole entry): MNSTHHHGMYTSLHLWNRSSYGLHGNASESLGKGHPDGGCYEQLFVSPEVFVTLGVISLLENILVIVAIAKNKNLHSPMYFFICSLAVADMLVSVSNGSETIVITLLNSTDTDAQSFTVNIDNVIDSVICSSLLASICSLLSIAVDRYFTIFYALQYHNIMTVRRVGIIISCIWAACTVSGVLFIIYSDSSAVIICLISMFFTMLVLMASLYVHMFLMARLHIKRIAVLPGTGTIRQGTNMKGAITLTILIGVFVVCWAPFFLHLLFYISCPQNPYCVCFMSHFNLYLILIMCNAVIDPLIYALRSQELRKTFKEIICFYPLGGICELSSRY
T1 sequence (P41149 whole entry): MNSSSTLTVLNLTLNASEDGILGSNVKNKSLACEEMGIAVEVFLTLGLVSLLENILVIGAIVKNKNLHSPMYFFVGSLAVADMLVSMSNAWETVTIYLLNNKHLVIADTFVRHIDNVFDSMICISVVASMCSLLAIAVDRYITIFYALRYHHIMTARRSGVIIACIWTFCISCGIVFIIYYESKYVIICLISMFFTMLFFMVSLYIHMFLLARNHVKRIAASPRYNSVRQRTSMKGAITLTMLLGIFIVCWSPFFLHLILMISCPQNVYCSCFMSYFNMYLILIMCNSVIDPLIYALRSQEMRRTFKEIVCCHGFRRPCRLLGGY

Which results are given for cyclo(PRFFNAG[dP]) [c[Pro-Arg-Phe-Phe-Asn-Ala-Gly-DPro]]?
inverse agonist, % change from basal cAMP at 100 µM [1]: -25%; % activation at 100 µM (cAMP AlphaScreen) [2]: 60%

With PRFFXAFP (head-to-tail cyclic; DArg at 2; DPhe at 4; Dap at 5; DPro at 8) [c[Pro-DArg-Phe-DPhe-Dap-Ala-Phe-DPro]] as the binder, how does the “inverse agonist, % change from basal cAMP at 100 µM” value (“inverse agonist, % change” for short) [3] read?
The value was -20%.

And the “agonist EC50 (cAMP AlphaScreen)” value [4]?
Its value is greater than 100 µM.

And the “antagonist pA2 (Schild, agonist NDP-MSH)” value [4]?
The value was 5.7.

What about the “agonist EC50 (cAMP AlphaScreen)” value [5] of the same binder?
Its value is 0.45 µM.

And the “partial agonist efficacy, % of NDP-MSH” value [5]?
The value was 70%.

What does the source list for PRFFXAFP (head-to-tail cyclic; DArg at 2; DPhe at 3 and 4; Dap at 5; DPro at 8) [c[Pro-DArg-DPhe-DPhe-Dap-Ala-Phe-DPro]]?
inverse agonist, % change from basal cAMP at 100 µM [3]: -15%; agonist EC50 (cAMP AlphaScreen) [4]: > 100 µM; antagonist pA2 (Schild, agonist NDP-MSH) [4]: < 5.5; agonist EC50 (cAMP AlphaScreen) [5]: 2.2 µM; partial agonist efficacy, % of NDP-MSH [5]: 60%

B1: hAGRP(86-132) (ligand, human, UniProt O00253 86-132, looked up)
chain: RCVRLHESCLGQQVPCCDPCATCYCRFFNAFCYCRKLGTAMNPCSRT
notes: range 86-132; also called C-terminal domain of AGRP
B1 was tested. Which “antagonist pA2 (Schild, agonist NDP-MSH)” value [6] did it give?
Its value is 8.7.

What about the “antagonist pA2 (Schild, agonist NDP-MSH)” value [7] of the same binder?
The value was 8.7.

What about the IC50 [8] of the same binder?
The IC50 was 0.012 µM.

And the “antagonist pA2 (Schild, agonist NDP-MSH)” value [9]?
Its value is 8.8.

What about the “inverse agonist apparent potency (EC50)” value [9] of the same binder?
The value was 0.0024 µM.

What about the “inverse agonist, % decrease from basal signal” value [9] of the same binder?
The value was -35%.

How did the “agonist EC50 (cAMP AlphaScreen)” value [3] turn out when PRFFXAFP (head-to-tail cyclic; DPhe at 4; Dap at 5; DPro at 8) [c[Pro-Arg-Phe-DPhe-Dap-Ala-Phe-DPro]] was run?
Its value is greater than 100 µM.

What about the “agonist EC50 (cAMP AlphaScreen)” value [4] of the same binder?
The value was greater than 100 µM.

What about the “antagonist pA2 (Schild, agonist NDP-MSH)” value [4] of the same binder?
The value was less than 5.5.

What about the “agonist EC50 (cAMP AlphaScreen)” value [5] of the same binder?
Its value is 0.8 µM.

And the “partial agonist efficacy, % of NDP-MSH” value [5]?
Its value is 75%.

For PRFFXAFP (head-to-tail cyclic; DArg at 2; Dap at 5; DPro at 8) [c[Pro-DArg-Phe-Phe-Dap-Ala-Phe-DPro]], which “agonist EC50 (cAMP AlphaScreen)” value [3] is on record?
The value was greater than 100 µM.

What about the “% maximal NDP-MSH response at 100 µM (cAMP AlphaScreen)” value (shortened to “% maximal NDP-MSH response at 100 µM”) [10] of the same binder?
Its value is 25%.

And the “% maximal NDP-MSH response at 100 µM” value [4]?
Its value is 25%.

What about the “antagonist pA2 (Schild, agonist NDP-MSH)” value [4] of the same binder?
Its value is 5.7.

And the “% maximal NDP-MSH response at 100 µM” value [5]?
The value was 25%.

cyclo(PRFFNAS[dP]) [c[Pro-Arg-Phe-Phe-Asn-Ala-Ser-DPro]] was tested. Which “inverse agonist, % change” value [1] did it give?
The value was -55%.

And the “% activation at 100 µM (cAMP AlphaScreen)” value [2]?
Its value is 35%.

With PRFFXAFP (head-to-tail cyclic; DPhe at 3 and 4; Dap at 5; DPro at 8) [c[Pro-Arg-DPhe-DPhe-Dap-Ala-Phe-DPro]] as the binder, how does the “agonist EC50 (cAMP AlphaScreen)” value [3] read?
Its value is greater than 100 µM.

What about the “agonist EC50 (cAMP AlphaScreen)” value [4] of the same binder?
Its value is greater than 100 µM.

What about the “antagonist pA2 (Schild, agonist NDP-MSH)” value [4] of the same binder?
Its value is 5.7.

What about the “agonist EC50 (cAMP AlphaScreen)” value [5] of the same binder?
Its value is 0.7 µM.

What does the source list for PRFFXAFP (head-to-tail cyclic; DArg at 2; DPhe at 3; Dap at 5; DPro at 8) [c[Pro-DArg-DPhe-Phe-Dap-Ala-Phe-DPro]]?
inverse agonist, % change from basal cAMP at 100 µM [3]: -30%; agonist EC50 (cAMP AlphaScreen) [4]: > 100 µM; antagonist pA2 (Schild, agonist NDP-MSH) [4]: 6; agonist EC50 (cAMP AlphaScreen) [5]: 0.8 µM; partial agonist efficacy, % of NDP-MSH [5]: 70%

What does the source list for PRFFXAFP (head-to-tail cyclic; DPhe at 3; Dap at 5; DPro at 8) [c[Pro-Arg-DPhe-Phe-Dap-Ala-Phe-DPro]]?
agonist EC50 (cAMP AlphaScreen) [3]: > 100 µM; % maximal NDP-MSH response at 100 µM (cAMP AlphaScreen) [10]: 20%; agonist EC50 (cAMP AlphaScreen) [4]: > 100 µM; antagonist pA2 (Schild, agonist NDP-MSH) [4]: 5.92; agonist EC50 (cAMP AlphaScreen) [5]: 0.23 µM

B2: c[Pro-Arg-Phe-Phe-Asn-Ala-Asp-DPro] (peptide)
peptide: cyclo(PRFFNAD[dP])
SMILES: C[C@@H]1NC(=O)[C@H](CC(N)=O)NC(=O)[C@H](Cc2ccccc2)NC(=O)[C@H](Cc2ccccc2)NC(=O)[C@H](CCCNC(=N)N)NC(=O)[C@@H]2CCCN2C(=O)[C@H]2CCCN2C(=O)[C@H](CC(=O)O)NC1=O
Which “inverse agonist, % change” value [1] does the source give for B2 here?
Its value is -25%.

And the “antagonist pA2 (Schild, agonist NDP-MSH)” value [11]?
Its value is less than 5.5.

What about the “antagonist pA2 (Schild, agonist NDP-MSH)” value [12] of the same binder?
The value was less than 5.5.

What about the “% activation at 100 µM (cAMP AlphaScreen)” value [2] of the same binder?
Its value is 40%.

For cyclo(PRFFDAF[dP]) [c[Pro-Arg-Phe-Phe-Asp-Ala-Phe-DPro]], which “inverse agonist, % change” value [13] is on record?
The value was -25%.

What about the “agonist EC50 (cAMP AlphaScreen)” value [6] of the same binder?
The value was greater than 100 µM.

And the “antagonist pA2 (Schild, agonist NDP-MSH)” value [6]?
Its value is 6.79.

And the “agonist EC50 (cAMP AlphaScreen)” value [7]?
Its value is greater than 100 µM.

What about the “antagonist pA2 (Schild, agonist NDP-MSH)” value [7] of the same binder?
Its value is less than 5.5.

And the “agonist EC50 (cAMP AlphaScreen)” value [14]?
The value was greater than 100 µM.

And the IC50 [8]?
Its IC50 is 1.3 µM.

What about the IC50 [15] of the same binder?
The IC50 was 3.6 µM.

Which “inverse agonist apparent potency” value [13] does the source give for cyclo(PRFFEAF[dP]) [c[Pro-Arg-Phe-Phe-Glu-Ala-Phe-DPro]] here?
The value was 0.7 µM.

What about the “inverse agonist, % decrease from basal cAMP” value [13] of the same binder?
The value was -10%.

And the “agonist EC50 (cAMP AlphaScreen)” value [6]?
The value was greater than 100 µM.

And the “antagonist pA2 (Schild, agonist NDP-MSH)” value [6]?
The value was 7.

What about the “agonist EC50 (cAMP AlphaScreen)” value [7] of the same binder?
Its value is greater than 100 µM.

What about the “antagonist pA2 (Schild, agonist NDP-MSH)” value [7] of the same binder?
The value was less than 5.5.

What about the “agonist EC50 (cAMP AlphaScreen)” value [14] of the same binder?
Its value is 20.5 µM.

What about the IC50 [8] of the same binder?
Its IC50 is 1.4 µM.

And the IC50 [15]?
The IC50 was 2.5 µM.

From patent publication US20200115416A1 (REGENTS OF THE UNIVERSITY OF MINNESOTA, published 2020)
